Data taken from PMC5392361 (Nature chemical biology, 2017).
Each block holds one binder with its values, some of them ahead of it.

Columns and labels:
[1] = molecular target: T1, Sulfolobus solfataricus Rrp41-Rrp42 exosome core (Sulfolobus solfataricus, UniProt Q9UXC2 1-248; Q9UXC0 1-275); assay: pull-down
T1 sequence 1: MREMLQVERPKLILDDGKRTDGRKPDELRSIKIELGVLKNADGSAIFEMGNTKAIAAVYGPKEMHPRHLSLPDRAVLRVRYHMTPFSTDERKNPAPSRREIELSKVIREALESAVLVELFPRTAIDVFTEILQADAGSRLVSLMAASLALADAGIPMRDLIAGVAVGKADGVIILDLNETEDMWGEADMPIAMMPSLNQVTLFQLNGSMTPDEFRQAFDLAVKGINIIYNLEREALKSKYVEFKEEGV
T1 sequence 2: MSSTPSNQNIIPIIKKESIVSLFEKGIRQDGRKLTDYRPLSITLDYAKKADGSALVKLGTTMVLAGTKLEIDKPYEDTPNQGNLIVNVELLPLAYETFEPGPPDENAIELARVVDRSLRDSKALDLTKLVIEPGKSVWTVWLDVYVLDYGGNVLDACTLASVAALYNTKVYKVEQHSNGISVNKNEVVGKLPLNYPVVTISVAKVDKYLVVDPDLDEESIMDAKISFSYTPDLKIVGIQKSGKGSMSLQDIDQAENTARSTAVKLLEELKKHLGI

Rrp4-exosome WT = molecular target: T2, Rrp4-exosome WT (Sulfolobus solfataricus, UniProt Q9UXC4;Q9UXC2;Q9UXC0 1-249;1-248;1-275); assay: fluorescence anisotropy
T2 sequence 1: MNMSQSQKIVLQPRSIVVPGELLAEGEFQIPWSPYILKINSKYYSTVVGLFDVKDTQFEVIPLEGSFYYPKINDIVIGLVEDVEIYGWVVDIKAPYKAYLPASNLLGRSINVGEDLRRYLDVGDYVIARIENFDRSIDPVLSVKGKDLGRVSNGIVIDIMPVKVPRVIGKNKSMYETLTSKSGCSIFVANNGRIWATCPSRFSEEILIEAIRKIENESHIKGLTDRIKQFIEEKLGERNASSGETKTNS
T2 sequence 2: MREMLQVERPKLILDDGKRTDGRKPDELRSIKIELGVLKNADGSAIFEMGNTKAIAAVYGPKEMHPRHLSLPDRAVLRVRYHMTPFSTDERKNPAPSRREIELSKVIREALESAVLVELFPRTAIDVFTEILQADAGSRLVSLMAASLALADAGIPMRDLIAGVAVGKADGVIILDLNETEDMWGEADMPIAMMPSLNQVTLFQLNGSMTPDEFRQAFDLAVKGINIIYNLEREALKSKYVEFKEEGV
T2 sequence 3: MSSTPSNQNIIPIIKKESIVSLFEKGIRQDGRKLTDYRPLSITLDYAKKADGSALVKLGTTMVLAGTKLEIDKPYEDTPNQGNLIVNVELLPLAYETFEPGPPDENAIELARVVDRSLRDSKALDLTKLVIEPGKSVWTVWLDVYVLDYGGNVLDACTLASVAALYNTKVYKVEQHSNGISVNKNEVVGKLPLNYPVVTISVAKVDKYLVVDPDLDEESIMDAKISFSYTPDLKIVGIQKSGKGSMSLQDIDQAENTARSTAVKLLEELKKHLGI

[2] = molecular target: T3, Rrp4-exosome, Rrp4 3MS K38M (Sulfolobus solfataricus, UniProt Q9UXC4;Q9UXC2;Q9UXC0 1-249;1-248;1-275, M1S;M3S;K38M); assay: NMR methyl TROSY CSP
T3 sequence 1: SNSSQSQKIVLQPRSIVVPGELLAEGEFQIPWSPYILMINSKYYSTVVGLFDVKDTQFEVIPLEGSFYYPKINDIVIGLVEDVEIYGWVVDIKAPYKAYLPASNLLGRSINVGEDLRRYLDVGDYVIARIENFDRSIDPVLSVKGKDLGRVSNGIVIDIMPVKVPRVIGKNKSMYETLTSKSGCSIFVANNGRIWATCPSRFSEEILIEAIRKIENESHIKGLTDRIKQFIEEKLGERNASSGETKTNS
T3 sequence 2: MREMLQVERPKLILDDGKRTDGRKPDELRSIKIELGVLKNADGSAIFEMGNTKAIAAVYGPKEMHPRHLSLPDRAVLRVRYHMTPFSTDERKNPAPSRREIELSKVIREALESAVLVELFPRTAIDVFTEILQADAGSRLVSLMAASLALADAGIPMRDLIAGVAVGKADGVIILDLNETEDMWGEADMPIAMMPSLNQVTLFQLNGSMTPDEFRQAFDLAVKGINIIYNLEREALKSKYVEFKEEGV
T3 sequence 3: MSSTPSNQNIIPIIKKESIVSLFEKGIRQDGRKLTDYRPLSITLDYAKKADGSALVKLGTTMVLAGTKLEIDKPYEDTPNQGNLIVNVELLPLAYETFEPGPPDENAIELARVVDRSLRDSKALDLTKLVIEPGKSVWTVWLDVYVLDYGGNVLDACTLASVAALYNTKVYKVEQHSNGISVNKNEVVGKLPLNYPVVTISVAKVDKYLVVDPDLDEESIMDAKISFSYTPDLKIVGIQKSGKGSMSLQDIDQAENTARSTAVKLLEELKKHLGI

[3] = molecular target: T4, Rrp4-exosome, Rrp4 3MS N171M (Sulfolobus solfataricus, UniProt Q9UXC4;Q9UXC2;Q9UXC0 1-249;1-248;1-275, M1S;M3S;N171M); assay: NMR methyl TROSY CSP
T4 sequence 1: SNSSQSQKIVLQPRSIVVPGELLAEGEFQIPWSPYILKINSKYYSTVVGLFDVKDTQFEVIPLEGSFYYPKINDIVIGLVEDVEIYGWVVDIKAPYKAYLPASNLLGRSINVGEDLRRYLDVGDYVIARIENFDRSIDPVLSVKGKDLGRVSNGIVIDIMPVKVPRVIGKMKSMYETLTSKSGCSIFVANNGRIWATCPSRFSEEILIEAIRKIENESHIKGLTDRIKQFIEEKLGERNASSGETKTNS
T4 sequence 2: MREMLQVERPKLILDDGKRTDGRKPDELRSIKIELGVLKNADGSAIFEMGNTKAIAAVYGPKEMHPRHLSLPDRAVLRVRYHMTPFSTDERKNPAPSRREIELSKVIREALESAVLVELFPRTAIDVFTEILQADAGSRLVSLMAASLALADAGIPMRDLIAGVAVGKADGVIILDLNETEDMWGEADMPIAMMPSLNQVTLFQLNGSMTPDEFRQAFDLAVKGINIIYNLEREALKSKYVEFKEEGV
T4 sequence 3: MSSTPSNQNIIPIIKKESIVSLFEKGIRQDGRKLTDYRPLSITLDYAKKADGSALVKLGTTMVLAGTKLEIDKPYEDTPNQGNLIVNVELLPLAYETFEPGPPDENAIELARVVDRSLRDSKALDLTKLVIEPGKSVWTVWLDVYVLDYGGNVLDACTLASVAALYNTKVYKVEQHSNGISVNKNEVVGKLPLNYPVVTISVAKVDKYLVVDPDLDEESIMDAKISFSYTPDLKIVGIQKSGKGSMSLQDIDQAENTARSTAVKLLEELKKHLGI

[4] = molecular target: T5, Rrp4-exosome, Rrp4 KNK170ENQ (Sulfolobus solfataricus, UniProt Q9UXC4;Q9UXC2;Q9UXC0 1-249;1-248;1-275, M1S;M3S;K170E;K172Q); assay: NMR line-shape titration
T5 sequence 1: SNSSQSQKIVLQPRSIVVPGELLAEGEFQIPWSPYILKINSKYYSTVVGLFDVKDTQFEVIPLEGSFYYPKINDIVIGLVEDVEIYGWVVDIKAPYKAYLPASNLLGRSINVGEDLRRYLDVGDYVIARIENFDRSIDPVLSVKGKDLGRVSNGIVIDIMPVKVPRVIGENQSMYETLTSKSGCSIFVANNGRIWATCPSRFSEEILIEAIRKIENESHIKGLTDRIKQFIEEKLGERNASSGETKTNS
T5 sequence 2: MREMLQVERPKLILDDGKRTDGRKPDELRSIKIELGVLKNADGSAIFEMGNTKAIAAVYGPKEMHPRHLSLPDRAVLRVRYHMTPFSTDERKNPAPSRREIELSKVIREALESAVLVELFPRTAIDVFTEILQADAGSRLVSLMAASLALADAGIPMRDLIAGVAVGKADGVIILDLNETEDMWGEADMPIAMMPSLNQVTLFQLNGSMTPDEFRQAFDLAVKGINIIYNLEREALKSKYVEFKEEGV
T5 sequence 3: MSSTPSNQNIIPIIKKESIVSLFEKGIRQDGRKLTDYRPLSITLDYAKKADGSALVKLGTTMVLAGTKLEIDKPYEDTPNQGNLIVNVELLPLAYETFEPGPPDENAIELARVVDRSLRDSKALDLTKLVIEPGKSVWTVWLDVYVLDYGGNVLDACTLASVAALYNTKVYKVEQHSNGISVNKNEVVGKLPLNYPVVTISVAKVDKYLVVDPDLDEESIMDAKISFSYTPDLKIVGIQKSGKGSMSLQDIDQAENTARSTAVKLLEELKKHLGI

binding result [1]: binds
B1: Sulfolobus solfataricus Rrp4 exosome cap protein (natural protein, UniProt Q9UXC4 1-249, looked up)
chain: MNMSQSQKIVLQPRSIVVPGELLAEGEFQIPWSPYILKINSKYYSTVVGLFDVKDTQFEVIPLEGSFYYPKINDIVIGLVEDVEIYGWVVDIKAPYKAYLPASNLLGRSINVGEDLRRYLDVGDYVIARIENFDRSIDPVLSVKGKDLGRVSNGIVIDIMPVKVPRVIGKNKSMYETLTSKSGCSIFVANNGRIWATCPSRFSEEILIEAIRKIENESHIKGLTDRIKQFIEEKLGERNASSGETKTNS

B2: long RNA (4-thio-U, fluorescein) (structured_RNA)
RNA: GCCCCCCCCGAAAGGGGGGGGAAAAAAAAAAAAAAAAAAAAAUAAAAAAAAAAAGCU
modifications: 4-thiouridine at the single U within the A tail (written U)
Kd (Rrp4-exosome WT): 0.0675 ± 0.0227 µM

B3: NMR substrate RNA (hairpin-A32, cyclic phosphate) (structured_RNA)
RNA: GCCCCCCCCGAAAGGGGGGGGAAAAAAAAAAAAAAAAAAAAAAAAAAAAAAAA
modifications: 2'-3' cyclic phosphate at 3' end
binding result [2]: binds
binding result [3]: binds
Kd [4]: 60.5 ± 4.6 µM
